Experimental data reported in US20090117640.

B1: TGase from S. mobaraense (wild type) (protein)
chain: DSDDRVTPPAEPLDRMPDPYRPSYGRAETVVNNYIRKWQQVYSHRDGRKQQMTEEQREWLSYGCVGVTWVNSGQYPTNRLAFASFDEDRFKNELKNGRPRSGETRAEFEGRVAKESFDEEKGFQRAREVASVMNRALENAHDESAYLDNLKKELANGNDALRNEDARSPFYSALRNTPSFKERNGGNHDPSRMKAVIYSKHFWSGQDRSSSADKRKYGDPDAFRPAPGTGLVDMSRDRNIPRSPTSPGEGFVNFDYGWFGAQTEADADKTVWTHGNHYHAPNGSLGAMHVYESKFRNWSEGYSDFDRGAYVITFIPKSWNTAPDKVKQGWP
B2: TGase from Streptoverticillium ladakanum (protein)
chain: DSDERVTPPAEPLDRMPDPYRPSYGRAETIVNNYIRKWQQVYSHRDGRKQQMTEEQREWLSYGCVGVTWVNSGQYPTNRLAFAFFDEDKYKNELKNGRPRSGETRAEFEGRVAKDSFDEAKGFQRARDVASVMNKALENAHDEGAYLDNLKKELANGNDALRNEDARSPFYSALRNTPSFKDRNGGNHDPSKMKAVIYSKHFWSGQDRSGSSDKRKYGDPEAFRPDRGTGLVDMSRDRNIPRSPTSPGESFVNFDYGWFGAQTEADADKTVWTHGNHYHAPNGSLGAMHVYESKFRNWSDGYSDFDRGAYVVTFVPKSWNTAPDKVKQGWP

Columns and labels:
[1] = molecular target: hGH mutant Q141N, P01241
[2] = molecular target: hGH mutant Q40N, P01241
Sequence of hGH mutant Q40N, P01241 (P01241 27-217 Q66N): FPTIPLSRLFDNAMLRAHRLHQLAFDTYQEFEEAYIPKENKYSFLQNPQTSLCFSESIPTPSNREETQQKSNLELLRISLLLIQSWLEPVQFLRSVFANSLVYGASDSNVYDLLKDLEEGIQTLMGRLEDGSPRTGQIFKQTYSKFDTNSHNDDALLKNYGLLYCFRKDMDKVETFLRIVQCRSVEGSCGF

Sequence of hGH mutant Q141N, P01241 (P01241 27-217 Q167N): as the sequence (P01241 27-217 Q66N) above, with N40Q, Q141N counted along it

Row | Protein | HPLC peak area of product-Q40 [1] | Q141N (remaining substrate, normalized to 100) (normalized peak area (sum 100)) [1] | product-Q40 (normalized to 100) (normalized peak area (sum 100)) [1] | HPLC peak area of product-Q141 [2] | Q40N (remaining substrate, normalized to 100) (normalized peak area (sum 100)) [2] | product-Q141 (normalized to 100) (normalized peak area (sum 100)) [2]
1 | B1 | The first peak (19.5 min, area 296) is product-Q40 | 81 | 19 | The first peak (26.9 min, area 1283) is product-Q141 | 29 | 71
2 | B2 | The first peak (19.2 min, area 127) is product-Q40 | 90 | 10 | The first peak (26.5 min, area 1238) is product-Q141 | 23 | 77
